{"source": "patent US20090074795A1", "about": "“Methods for addressing ocular diseases through interference with the wnt signaling pathway” (priority 2007, published 2009)", "molecules": {"B1": {"name": "DKK1: Purified Dickkopf-1 protein (R&D System), specific inhibitor of the wnt pathway binding LRP5/6; mouse protein in mice, human in HUVEC (protein, UniProt O54908 32-272; O54908 32-272, looked up)", "Dickkopf-related protein 1 1": "TLNSVLINSNAIKNLPPPLGGAGGQPGSAVSVAPGVLYEGGNKYQTLDNYQPYPCAEDEECGSDEYCSSPSRGAAGVGGVQICLACRKRRKRCMRHAMCCPGNYCKNGICMPSDHSHFPRGEIEESIIENLGNDHNAAAGDGYPRRTTLTSKIYHTKGQEGSVCLRSSDCAAGLCCARHFWSKICKPVLKEGQVCTKHKRKGSHGLEIFQRCYCGEGLACRIQKDHHQASNSSRLHTCQRH", "Dickkopf-related protein 1 2": "B1 Dickkopf-related protein 1 1", "modifications": "mouse protein in mice, human in HUVEC"}}, "type_in_all_cases": "in vivo, rat", "key": {"OIR rats [1]": {"system": "OIR rats", "assay": "Retinal VEGF (western blot) after intravitreal DKK1 in OIR rats", "conditions": "3 μg/eye intravitreal at P15, retinas at P18, western blot, vs BSA", "experimental": "To determine the effect of the wnt pathway blockade of the VEGF expression induced by ischemia, DKK1 was injected into the vitreous of the OIR rats at P15. The rats were then maintained in normoxia for 3 days, and the VEGF expression in the retina was measured.\nThe same amount of BSA was injected as control. The same amount of total protein from each rat was used for western blot analysis using specific antibody for VEGF. Each lane represents an individual rat.\n(§1) Intravitreal injection: All solutions will be sterilized by filtration and assessed for endotoxin. Animals will be anesthetized, and compounds will be injected into the vitreous of the one eye through the pars plana using a Hamilton syringe. The left eye will receive the same volume of vehicle and will be used as the control. Following injection, the animals will receive equal amounts of topical antibiotic ointment on both eyes. The animals will then be kept in normoxic conditions until the necessary time point for evaluation"}, "OIR rats [2]": {"system": "OIR rats", "assay": "Retinal NV by fluorescein angiography in OIR rats", "conditions": "3 μl of 1 μg/μl intravitreal at P15, fluorescein angiography at P18, vs BSA", "experimental": "To determine the anti-angiogenic effect of DKK1 on retinal NV, DKK1 was injected (3 μl of 1 μg/μl DKK1) into the vitreous of the OIR rats at P15. At the time, NV had partially formed in the OIR rats at P15. The rats were then maintained in normoxia for 3 days, and then the retinal NV was examined using fluorescein angiography on retinal whole mounts at P18.\nAccording to embodiments of experimental data and as shown in FIGS. 19A-19D, the OIR model was generated by exposure of BN rats to 75% oxygen for 5 days (P7-P12). At age of P15, OIR BN rats received a single intravitreal injection of DKK1 into the right eye and the same amount of BSA into the left eye. At P18, retinal vasculature was visualized using fluorescein angiography on the whole-mounted retinas from the left eye injected with BSA (FIGS. 19A and 19B) and the right eyes injected with DKK1 (FIGS. 19C and 19D) by angiography at P18.\nFluorescein Angiography: Angiograms were performed using intracardiac injection of 10 mg/ml fluorescein isothiocyanate-conjugated high molecular weight dextran (Sigma, FD-2000S) in deeply anesthetized mice. Eyes were dissected and fixed with 4% paraformaldehyde in Hanks' balanced saline prepared immediately before use for overnight at 4° C., and retinas were flat-mounted in Fluoromount-G."}, "OIR rats [3]": {"system": "OIR rats", "assay": "Pre-retinal NV and HIF-1α in retinal sections of OIR rats", "experimental": "Because pre-retinal NV (vasculature growing into the vitreous space) is a characteristic change of diabetic retinopathy, the effect of DKK1 was evaluated on pre-retinal NV. DKK1 was injected into the right vitreous of the OIR rats and BSA into the left vitreous at P15. At P18, pre-retinal NV was examined in retinal sections. […] Furthermore, the nuclear translocation and expression levels of HIF-1α, a key transcription factor activating VEGF expression, were decreased in the retina of the DKK1-injected eye, compared to the eye treated with BSA.\nAccording to embodiments of experimental data and as shown in FIGS. 20A-20C, Brown Norway (BN) rats were exposed to hyperoxia for 5 days (P7-P12). At age of P15, the rats received a single injection of 3 μg of DKK1 into the vitreous of the right eyes and BSA into the left eyes. The eyes were sectioned at P18. Representative retinal sections from normal control rats (FIG. 20A), eyes of OIR rats injected with BSA (FIG. 20B), and OIR retina injected with DKK1 (FIG. 20C) were triple stained with three antibodies: Retinal vascular EC was stained with an antibody against CD31 (Red); the retinal ischemia stress status was detected by an antibody against GFAP (Blue), and the levels and nuclear translocation of HIF-1α were determined by an antibody against HIF-1α (Green)."}, "STZ-diabetic BN rats": {"system": "STZ-diabetic BN rats", "assay": "Retinal vascular permeability in STZ-induced diabetic rats", "conditions": "STZ-diabetic BN rats 16 weeks, 3 μg/eye intravitreal, 48 h, vs BSA contralateral eye, P<0.05", "experimental": "To investigate if blockade of the wnt pathway reduces the retinal vascular hyper-permeability in diabetes, 3 μg purified DKK1 was intravitreally injected into the right eyes of STZ-diabetic BN rats at 16 weeks following the STZ injection, and the same amount of BSA into the contralateral eyes as control. The vascular permeability was measured at 48 h following the DKK1 injection.\nThe retinal vascular permeability was measured using Evans blue as a tracer, 48 hr after the injection. Vascular permeability was expressed as % of the permeability in the contralateral control (mean±SD, n=4), P<0.05.\nMeasurement of vascular permeability: Vascular permeability will be quantified by measuring FITC-BSA leakage from blood vessels into the retina following a method with modifications. The mice anesthetized and FITC-BSA (10 mg/kg body weight) is injected through the femoral vein under microscopic inspection. […] The fluoresce density of fluorescein-albumin from supernatant and serum is measured at excitation wave 485 nm/emission wave 530 nm. Retinal protein levels are measured in the pellet by Bradford assays with quantification at […]. The FITC-BSA levels in the retina are then calculated by the supernatant fluoresce density and normalized to retinal protein levels and normalized to serum FITC levels."}, "STZ-diabetic rats": {"system": "STZ-diabetic rats", "assay": "Retinal ICAM-1 (sICAM-1 ELISA) after intravitreal DKK1 in STZ-diabetic rats", "conditions": "different doses intravitreal, STZ-diabetic rats 16 weeks after onset, 2 days after injection, vs BSA", "experimental": "To determine the role of wnt pathway in retinal inflammation in diabetic retinopathy, different doses of purified DKK1, a specific inhibitor of the wnt pathway, was injected into the vitreous of the right eye of STZ-diabetic rats. As shown by ELISA, diabetes induced over-expression of ICAM-1 in the retina.\nAccording to embodiments of experimental data shown in FIG. 13, different doses of purified DKK1 were injected intravitrealy into the right eye of STZ-diabetic rats at 16 weeks following the onset of diabetes, and the same amounts of BSA into the left eye for control. Soluble ICAM-1 was measured at 2 days after the injection using the sICAM-1 ELISA kit, normalized by total protein concentrations and expressed as ng.\nas §1"}}, "data": [{"molecule": "B1", "values": [{"measurement": "VEGF over-expression in the retina", "setting": "OIR rats [1]", "result": "significantly blocked VEGF over-expression"}, {"measurement": "retinal NV areas", "setting": "OIR rats [2]", "result": "decreased retinal NV areas"}, {"measurement": "nuclear translocation and expression levels of HIF-1α in the retina", "setting": "OIR rats [3]; 3 μg intravitreal at P15, sections at P18, vs BSA", "result": "decreased"}, {"measurement": "neovascular endothelial cells (EC) in the vitreous space (pre-retinal NV)", "setting": "OIR rats [3]; 3 μg intravitreal at P15, sections at P18, vs BSA contralateral eye", "result": "significantly fewer"}, {"measurement": "retinal vascular permeability", "setting": "STZ-diabetic BN rats", "result": "significantly reduced retinal vascular permeability"}, {"measurement": "ICAM-1 over-expression in the retina", "setting": "STZ-diabetic rats", "result": "inhibited the ICAM-1 over-expression in a dose-dependent manner"}]}]}
